Source: patent US20260022155A1

Molecular target: HVEM expressed on cell lines (KTPloCD86A2 HVEM; K562CD19/HVEM) (UniProt Q92956)
Experiment: cell-based or functional assay
Conditions: scale: times higher than CD19-28z electroporated T cells

UniProt Q92956, sequence (Q92956 39-283 limits assumed): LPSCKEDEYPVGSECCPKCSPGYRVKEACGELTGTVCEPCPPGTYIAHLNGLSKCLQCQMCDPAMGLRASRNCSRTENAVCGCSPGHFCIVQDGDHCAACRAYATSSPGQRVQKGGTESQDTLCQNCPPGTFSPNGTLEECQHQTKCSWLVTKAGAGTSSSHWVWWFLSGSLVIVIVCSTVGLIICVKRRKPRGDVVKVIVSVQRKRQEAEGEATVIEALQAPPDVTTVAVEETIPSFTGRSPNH

- IL-2 production (ELISA) of T cells co-electroporated with CD19z and BTLA-CD28 CCR: 4
Substance: BTLA-CD28 CCR (receptor)
